The test addresses T1, human Granzyme B (human, UniProt P10144 21-247).
T1 construct: Captured on a Series S Streptavidin chip for SPR; also called hGranzyme B; GzmB
As to the kind of experiment: SPR, Biacore 8k+, hGranzyme B captured on SA chip, single cycle kinetics, 1:1 model. How it is done: The kinetics of test peptide binding to human Granzyme B (hGranzyme B) was determined by SPR. All experiments were performed at 25° C. using the Biacore 8k+ instrument (Cytiva, Marlborough, MA). The Biacore 8k+ Insight Evaluation Software Version 3.0 was used to fit the data with a 1:1 binding model to determine the association rate constant kₐ (M⁻¹s⁻¹, where “M” ~equals molar and “s” ~equals seconds) and the dissociation rate constant kd (s⁻¹). These rate constants were used to calculate the equilibrium dissociation constant. KD (M)=kd/kₐ.
To measure the binding kinetics of peptides of interest, surfaces were prepared by a capture method to a Series S Streptavidin (SA) chip using a 1×HBS-EP+ running buffer (Cytiva). hGranzyme B was diluted to 10 μg/mL in IX HBS-EP+ and flowed over spot 2 of each flow cell on the chip at a flow rate of 10 ul/min for 20 s to achieve a level of capture of ~1100 RU. An unmodified spot 1 of each flow cell was used as a matrix binding control or reference surface. Binding kinetics were measured using single cycle kinetics at 25° C. by injecting 5 concentrations with 3-fold serial dilutions of test peptides from 0.01 μM to 1 μM. Compound dilutions were performed manually in a running buffer containing 1×HBS-EP+(Cytiva), and a final concentration of 2% DMSO. The interaction analyses over hGranzyme B, were performed using a 120 s association time and a 900 s dissociation time. All experiments were conducted at a flow rate of 50 μL/min with a data collection rate of 10 Hz.
Peptide dilution series included 2 zero concentration points (no compound) which were averaged and subtracted from the peptide concentration injection as DMSO control responses. Binding data acquired from the reference surface (matrix binding control) were subtracted from the binding data for hGranzyme B surface on the chip to determine specific binding. Next, the association phase data were solvent corrected to account for any signal fluctuation throughout the experiment due to subtle DMSO concentration differences. Corrected response data were analyzed using the Biacore 8k+ Evaluation Software Version 3.0 according to the manufacturer. SPR data for representative compounds of the disclosure are found in Table 8.
(In general: Surface plasmon resonance follows binding to a sensor surface in real time, without labels.)

Our source for the Kd values is patent publication US20260207798A1, “CYCLIC PEPTIDES AS PET IMAGING AGENTS OF GRANZYME B” (priority 2022, published 2026).

Bridge positions count the residues as written; N and C are the ends.

T1 sequence (P10144 21-247 limits assumed): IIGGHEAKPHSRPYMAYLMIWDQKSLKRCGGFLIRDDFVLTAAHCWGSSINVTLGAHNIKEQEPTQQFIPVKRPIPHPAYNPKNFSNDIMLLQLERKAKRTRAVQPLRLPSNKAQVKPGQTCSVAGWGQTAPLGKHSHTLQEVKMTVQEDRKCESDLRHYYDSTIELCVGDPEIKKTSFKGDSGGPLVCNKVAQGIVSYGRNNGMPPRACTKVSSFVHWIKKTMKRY

B1: Compound 24a (peptide)
peptide: {CH2CO}-FNFEDQSVDTWQPCG-NH2
modifications: thioether N-14
SMILES: CC(C)[C@@H]1NC(=O)[C@H](CO)NC(=O)[C@H](CCC(N)=O)NC(=O)[C@H](CC(=O)O)NC(=O)[C@H](CCC(=O)O)NC(=O)[C@H](Cc2ccccc2)NC(=O)[C@H](CC(N)=O)NC(=O)[C@H](Cc2ccccc2)NC(=O)CSC[C@@H](C(=O)NCC(N)=O)NC(=O)[C@@H]2CCCN2C(=O)[C@H](CCC(N)=O)NC(=O)[C@H](Cc2c[nH]c3ccccc23)NC(=O)[C@H]([C@@H](C)O)NC(=O)[C@H](CC(=O)O)NC1=O
Consider B1, for which the affinity, expressed as Kd, was 28.8 nM.

B2: Compound 34a (peptide)
peptide: {CH2CO}-FNFEDQSAKTWQPCG-NH2
modifications: thioether N-14
SMILES: C[C@@H]1NC(=O)[C@H](CO)NC(=O)[C@H](CCC(N)=O)NC(=O)[C@H](CC(=O)O)NC(=O)[C@H](CCC(=O)O)NC(=O)[C@H](Cc2ccccc2)NC(=O)[C@H](CC(N)=O)NC(=O)[C@H](Cc2ccccc2)NC(=O)CSC[C@@H](C(=O)NCC(N)=O)NC(=O)[C@@H]2CCCN2C(=O)[C@H](CCC(N)=O)NC(=O)[C@H](Cc2c[nH]c3ccccc23)NC(=O)[C@H]([C@@H](C)O)NC(=O)[C@H](CCCCN)NC1=O
Consider B2, for which the equilibrium dissociation constant (Kd) (as a rule, the equilibrium constant for the complex coming apart) was 29.3 nM.

B3: Compound 37a (peptide)
peptide: {CH2CO}-FNFEDQSAHTWQPCG-NH2
modifications: thioether N-14
SMILES: C[C@@H]1NC(=O)[C@H](CO)NC(=O)[C@H](CCC(N)=O)NC(=O)[C@H](CC(=O)O)NC(=O)[C@H](CCC(=O)O)NC(=O)[C@H](Cc2ccccc2)NC(=O)[C@H](CC(N)=O)NC(=O)[C@H](Cc2ccccc2)NC(=O)CSC[C@@H](C(=O)NCC(N)=O)NC(=O)[C@@H]2CCCN2C(=O)[C@H](CCC(N)=O)NC(=O)[C@H](Cc2c[nH]c3ccccc23)NC(=O)[C@H]([C@@H](C)O)NC(=O)[C@H](Cc2c[nH]cn2)NC1=O
Consider B3, for which the Kd was 19.1 nM.

B4: Compound 35a (peptide)
peptide: {CH2CO}-FNFEDQSAWTWQPCG-NH2
modifications: thioether N-14
SMILES: C[C@@H]1NC(=O)[C@H](CO)NC(=O)[C@H](CCC(N)=O)NC(=O)[C@H](CC(=O)O)NC(=O)[C@H](CCC(=O)O)NC(=O)[C@H](Cc2ccccc2)NC(=O)[C@H](CC(N)=O)NC(=O)[C@H](Cc2ccccc2)NC(=O)CSC[C@@H](C(=O)NCC(N)=O)NC(=O)[C@@H]2CCCN2C(=O)[C@H](CCC(N)=O)NC(=O)[C@H](Cc2c[nH]c3ccccc23)NC(=O)[C@H]([C@@H](C)O)NC(=O)[C@H](Cc2c[nH]c3ccccc23)NC1=O
Molecule B4 returned a Kd of 24 nM.

B5: Compound 30a (peptide)
peptide: {CH2CO}-FNFEDQGADTWQPCG-NH2
modifications: thioether N-14
SMILES: C[C@@H]1NC(=O)CNC(=O)[C@H](CCC(N)=O)NC(=O)[C@H](CC(=O)O)NC(=O)[C@H](CCC(=O)O)NC(=O)[C@H](Cc2ccccc2)NC(=O)[C@H](CC(N)=O)NC(=O)[C@H](Cc2ccccc2)NC(=O)CSC[C@@H](C(=O)NCC(N)=O)NC(=O)[C@@H]2CCCN2C(=O)[C@H](CCC(N)=O)NC(=O)[C@H](Cc2c[nH]c3ccccc23)NC(=O)[C@H]([C@@H](C)O)NC(=O)[C@H](CC(=O)O)NC1=O
For B5, the affinity, expressed as Kd, was 25.9 nM.

B6: Compound 28a (peptide)
peptide: {CH2CO}-FNFEDQSARTWQPCG-NH2
modifications: thioether N-14
SMILES: C[C@@H]1NC(=O)[C@H](CO)NC(=O)[C@H](CCC(N)=O)NC(=O)[C@H](CC(=O)O)NC(=O)[C@H](CCC(=O)O)NC(=O)[C@H](Cc2ccccc2)NC(=O)[C@H](CC(N)=O)NC(=O)[C@H](Cc2ccccc2)NC(=O)CSC[C@@H](C(=O)NCC(N)=O)NC(=O)[C@@H]2CCCN2C(=O)[C@H](CCC(N)=O)NC(=O)[C@H](Cc2c[nH]c3ccccc23)NC(=O)[C@H]([C@@H](C)O)NC(=O)[C@H](CCCNC(=N)N)NC1=O
B6 gave a Kd of 18 nM.

B7: Compound 36a (peptide)
peptide: {CH2CO}-FNFEDQSAYTWQPCG-NH2
modifications: thioether N-14
SMILES: C[C@@H]1NC(=O)[C@H](CO)NC(=O)[C@H](CCC(N)=O)NC(=O)[C@H](CC(=O)O)NC(=O)[C@H](CCC(=O)O)NC(=O)[C@H](Cc2ccccc2)NC(=O)[C@H](CC(N)=O)NC(=O)[C@H](Cc2ccccc2)NC(=O)CSC[C@@H](C(=O)NCC(N)=O)NC(=O)[C@@H]2CCCN2C(=O)[C@H](CCC(N)=O)NC(=O)[C@H](Cc2c[nH]c3ccccc23)NC(=O)[C@H]([C@@H](C)O)NC(=O)[C@H](Cc2ccc(O)cc2)NC1=O
B7: the affinity, expressed as Kd, was 24.2 nM.

B8: Compound 33a (peptide)
peptide: {CH2CO}-FNFEDQSKDTWQPCG-NH2
modifications: thioether N-14
SMILES: C[C@@H](O)[C@@H]1NC(=O)[C@H](CC(=O)O)NC(=O)[C@H](CCCCN)NC(=O)[C@H](CO)NC(=O)[C@H](CCC(N)=O)NC(=O)[C@H](CC(=O)O)NC(=O)[C@H](CCC(=O)O)NC(=O)[C@H](Cc2ccccc2)NC(=O)[C@H](CC(N)=O)NC(=O)[C@H](Cc2ccccc2)NC(=O)CSC[C@@H](C(=O)NCC(N)=O)NC(=O)[C@@H]2CCCN2C(=O)[C@H](CCC(N)=O)NC(=O)[C@H](Cc2c[nH]c3ccccc23)NC1=O
For the molecule B8, binding was characterised by a dissociation constant (Kd) of 33.9 nM.

B9: Compound 31a (peptide)
peptide: {CH2CO}-FNFEDQSWDTWQPCG-NH2
modifications: thioether N-14
SMILES: C[C@@H](O)[C@@H]1NC(=O)[C@H](CC(=O)O)NC(=O)[C@H](Cc2c[nH]c3ccccc23)NC(=O)[C@H](CO)NC(=O)[C@H](CCC(N)=O)NC(=O)[C@H](CC(=O)O)NC(=O)[C@H](CCC(=O)O)NC(=O)[C@H](Cc2ccccc2)NC(=O)[C@H](CC(N)=O)NC(=O)[C@H](Cc2ccccc2)NC(=O)CSC[C@@H](C(=O)NCC(N)=O)NC(=O)[C@@H]2CCCN2C(=O)[C@H](CCC(N)=O)NC(=O)[C@H](Cc2c[nH]c3ccccc23)NC1=O
B9 yielded a Kd of 23.3 nM.

B10: Compound 32a (peptide)
peptide: {CH2CO}-FNFEDQSRDTWQPCG-NH2
modifications: thioether N-14
SMILES: C[C@@H](O)[C@@H]1NC(=O)[C@H](CC(=O)O)NC(=O)[C@H](CCCNC(=N)N)NC(=O)[C@H](CO)NC(=O)[C@H](CCC(N)=O)NC(=O)[C@H](CC(=O)O)NC(=O)[C@H](CCC(=O)O)NC(=O)[C@H](Cc2ccccc2)NC(=O)[C@H](CC(N)=O)NC(=O)[C@H](Cc2ccccc2)NC(=O)CSC[C@@H](C(=O)NCC(N)=O)NC(=O)[C@@H]2CCCN2C(=O)[C@H](CCC(N)=O)NC(=O)[C@H](Cc2c[nH]c3ccccc23)NC1=O
As to B10, binding was characterised by a dissociation constant (Kd) of 30.3 nM.

B11: Compound 29a (peptide)
peptide: {CH2CO}-FNFEDQNADTWQPCG-NH2
modifications: thioether N-14
SMILES: C[C@@H]1NC(=O)[C@H](CC(N)=O)NC(=O)[C@H](CCC(N)=O)NC(=O)[C@H](CC(=O)O)NC(=O)[C@H](CCC(=O)O)NC(=O)[C@H](Cc2ccccc2)NC(=O)[C@H](CC(N)=O)NC(=O)[C@H](Cc2ccccc2)NC(=O)CSC[C@@H](C(=O)NCC(N)=O)NC(=O)[C@@H]2CCCN2C(=O)[C@H](CCC(N)=O)NC(=O)[C@H](Cc2c[nH]c3ccccc23)NC(=O)[C@H]([C@@H](C)O)NC(=O)[C@H](CC(=O)O)NC1=O
In the case of B11, the affinity, expressed as Kd, was 31.4 nM.

B12: Compound 39a (peptide)
peptide: {CH2CO}-YNFEDQSPDTWQPCG-NH2
modifications: thioether N-14
SMILES: C[C@@H](O)[C@@H]1NC(=O)[C@H](CC(=O)O)NC(=O)[C@@H]2CCCN2C(=O)[C@H](CO)NC(=O)[C@H](CCC(N)=O)NC(=O)[C@H](CC(=O)O)NC(=O)[C@H](CCC(=O)O)NC(=O)[C@H](Cc2ccccc2)NC(=O)[C@H](CC(N)=O)NC(=O)[C@H](Cc2ccc(O)cc2)NC(=O)CSC[C@@H](C(=O)NCC(N)=O)NC(=O)[C@@H]2CCCN2C(=O)[C@H](CCC(N)=O)NC(=O)[C@H](Cc2c[nH]c3ccccc23)NC1=O
The molecule B12 displayed a Kd of 1.1 nM.

B13: Compound 27a (peptide)
peptide: {CH2CO}-FNFEDQAADTWQPCG-NH2
modifications: thioether N-14
SMILES: C[C@@H]1NC(=O)[C@H](C)NC(=O)[C@H](CCC(N)=O)NC(=O)[C@H](CC(=O)O)NC(=O)[C@H](CCC(=O)O)NC(=O)[C@H](Cc2ccccc2)NC(=O)[C@H](CC(N)=O)NC(=O)[C@H](Cc2ccccc2)NC(=O)CSC[C@@H](C(=O)NCC(N)=O)NC(=O)[C@@H]2CCCN2C(=O)[C@H](CCC(N)=O)NC(=O)[C@H](Cc2c[nH]c3ccccc23)NC(=O)[C@H]([C@@H](C)O)NC(=O)[C@H](CC(=O)O)NC1=O
B13: the Kd is 10.9 nM.
